The Human Domainome abundance scans (Beltran et al. 2025)

B1: Intersectin-1, residues 1156 to 1213; numbered along this chain, Q15811 (parent)
chain: AVCQVIGMYDYTAQNDDELAFNKGQIINVLNKEDPDWWKGEVNGQVGLFPSNYVKLTT

Variants of: B1
Assay: abundance fitness (aPCA) (normalised: wild type 0, dead -1); higher = more abundant; growth selection in yeast, the domain comes from the species named
Details: Homo sapiens

Abundance fitness of substitutions, site by site:
T12: G -0.424; H -0.108; I -0.608; K -0.178; L -0.369; M -0.168; N 0.01; Q -0.345; R -0.072; V -0.165; W -0.629; Y -0.289
A13: C -0.76; D -0.944; E -0.822; F -0.592; I -0.735; L -0.903; M -0.853; N -0.839; P -0.059; Q -0.676; R -0.451; S -0.455; T -0.336; V -0.832; W -0.746; Y -0.574
Q14: A -0.267; C -0.582; D -0.285; E -0.122; G -0.186; H -0.505; I -0.58; K 0.161; L -0.441; M -0.284; P -0.844; R 0.038; T -0.255; V -0.263; W -0.723; Y -0.922
N15: A -0.131; D -0.185; E -0.17; F -0.539; G 0.047; H -0.433; I -0.664; K 0.047; L -0.612; P -0.964; Q -0.185; R 0.038; S 0.085; T 0.024; V -0.639; W -0.635
D16: A -0.232; C -0.166; E 0.059; G -0.121; H -0.614; I -0.108; L -0.3; M -0.225; N -0.302; P -0.259; Q 0.115; R -0.293; S -0.296; T -0.232; W -0.726; Y -0.588
D17: C -0.344; E -0.03; F -0.359; G 0.101; H -0.298; I -0.419; K -0.099; L -0.125; M -0.048; N 0.147; P -0.592; Q -0.082; R 0.014; S 0.126; T -0.119; V -0.473; Y -0.359
E18: A -0.646; C -0.309; D -0.263; F -0.466; G -0.317; H -0.208; I -0.853; K -0.439; L -0.745; M -0.696; N -0.954; P -0.919; Q 0.036; R -0.819; S -0.397; T -0.908; V -0.722; W -0.905; Y -0.254
L19: A -0.9; C -0.599; D -0.776; E -0.523; F -0.733; G -0.726; H -0.858; I -0.357; K -0.908; N -0.7; P -0.806; Q -0.869; R -0.764; S -0.848; T -0.648; V -0.281; W -0.838; Y -1.04
A20: C -0.152; D -0.286; E -0.149; F -0.673; G 0.1; H -0.268; I -0.793; K -0.236; L -0.796; M -0.545; N -0.484; P -0.123; Q 0.092; R -0.292; S -0.079; T 0.127; W -0.415; Y -0.662
F21: A -0.913; C -1.01; D -0.656; E -0.745; G -0.772; H -0.724; I -0.266; K -0.527; L -0.687; M -0.643; P -1.06; Q -1.13; R -0.686; S -0.927; T -0.985; V 0.013; W -0.718; Y -1.06
N22: A 0.157; C 0.128; D 0.164; E 0.174; F -0.432; G -0.006; I -0.286; K -0.027; L -0.285; M 0.02; P -0.062; S 0.009; V -0.06; W -0.466; Y -0.422
K23: A 0.215; C -0.275; D -0.859; E -0.011; F -0.613; G -0.701; H -0.298; I -0.849; L -0.77; M -0.487; N -0.494; P -0.921; Q -0.043; R 0.137; S -0.214; T 0.065; V -0.21; W -0.852; Y -0.673
G24: A -0.854; D -0.579; E -0.895; F -0.739; I -0.682; K -0.571; M -0.693; N -0.348; P -0.825; Q -0.44; S -0.524; T -0.599; V -0.895; W -0.528
I26: A -0.237; C -0.149; D -0.807; E -0.278; F -0.523; G -0.857; H -0.332; K -0.084; L 0.18; M -0.462; P -0.561; Q -0.304; R -0.131; S -0.554; T 0.163; V 0.297; W -0.505
I27: A -0.789; D -0.695; E -0.811; F -0.805; G -0.746; H -0.748; K -0.81; L -0.373; M -0.696; N -0.765; P -0.612; Q -1.05; R -0.85; S -0.915; T -0.859; V -0.297; W -0.908; Y -0.564
N28: A -0.225; C -0.632; D -0.284; E -0.156; F -0.243; G -0.732; I -0.451; K -0.014; M -0.298; P -0.942; Q -0.399; R -0.065; S 0.186; T 0.281; V -0.423; Y -0.011
V29: C -0.219; D -0.739; E -0.925; G -0.742; H -1.03; I -0.617; K -0.699; L -0.323; N -0.721; Q -1.01; R -0.9; S -0.827; T -0.788; W -0.672; Y -0.504
L30: A -0.911; C -0.867; D -0.917; E -0.978; F -0.123; G -0.933; H -0.7; I 0.043; K -0.825; M -0.412; N -0.505; P -1.04; Q -0.257; R -0.712; S -0.758; T -0.476; V -0.081; Y -0.32
N31: A 0.037; C 0.287; D 0.223; E 0.196; F -1.05; G -0.076; H -0.095; I -0.559; K -0.319; L -0.631; M -0.275; P -0.833; Q -0.099; R -0.373; S 0.006; T -0.159; V -0.313; W -0.287; Y -0.525
K32: A 0.093; C -0.147; D -0.296; F -0.576; G -0.527; H -0.449; L -0.38; M -0.039; N -0.339; P -0.736; Q -0.035; R 0.066; S -0.16; T -0.093; W -0.109; Y -0.341
E33: A -0.211
